For experiment [1], the target named is T1, human CCR8 (human, UniProt P51685 1-355). Description: cell-based or functional assay.
Experiment [2] concerns the target T1, human CCR8. As to the kind of experiment: cell-based or functional assay. The source holds these as a separate data set.
Experiment [3] addresses T2, pm5 (human, sulfated tyrosines at Y15 and Y17). As to the kind of experiment: ELISA on coated peptide [cont.]. The method in brief:
(§1)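 Binding is scored by optical density: plates carry 500 ng/mL peptide in carbonate/bicarbonate buffer, receive mAb at 1 μg/mL or diluted 1/10 for 90 min at room temperature, then TMB for 15 min.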

Experiment [4] deals with T3, pm6 (human, sulfated tyrosines at Y16 and Y17). As to the kind of experiment: ELISA on coated peptide [cont.]. The method in brief: as §1
In experiment [5] the target is T4, pm8 (human, sulfated tyrosines at Y15, Y16 and Y17). As to the kind of experiment: ELISA on coated peptide [cont.]. In outline: as §1
Experiment [6] addresses T5, pm3 (human, sulfated tyrosine at Y17). As to the kind of experiment: ELISA on coated peptide [cont.]. The method in brief:
as §1

The target in experiment [7] is T1, human CCR8. Description: competition HTRF on HEK-293 cells with hCCR8; blocked ligand CCL1-AF647 [cont.].
The target in experiment [8] is T2, pm5. As to the kind of experiment: ELISA on coated peptide. Here is the method: (§2) The specific binding properties of antibodies were evaluated by ELISA with coated CCR8 related peptides (500 ng/mL) in carbonate/bicarbonate buffer. Different peptides were used as described in Table 1 (see Example 1). Each anti-CCR8 mAb was tested at 1 μg/mL then diluted at 1/10. After an incubation at room temperature during 90 min, unbound mAbs were removed by washings. […] After washings, 3,3′,5,5′-tetramethylbenzidine (TMB) (Interchim, Montlugon, France) was added for 15 min. Then the optical density (OD) was determined by using a multiplate reader (Tecan, Lyon, France) and correlated with mAb reactivity on the panel of coated peptides.

Experiment [9] concerns the target T3, pm6. Description: ELISA on coated peptide. Here is the method: as §2
Experiment [10] concerns the target T4, pm8. Description: ELISA on coated peptide. Here is the method: as §2
Experiment [11] has as its target T5, pm3. Description: ELISA on coated peptide. Here is the method:
as §2

Experiment [12] deals with T1, human CCR8. Description: flow cytometry, hCCR8 transfected CHOK1 cells.
The next experiment has as its target pm4 (human, sulfated tyrosine(s) among Tyr 15, Tyr 16, Tyr 17; marked only by underlining, lost in the text). As to the kind of experiment: ELISA on coated peptide. Here is the method: as §2
Another experiment has as its target pm1 (human, sulfated tyrosine(s) among Tyr 15, Tyr 16, Tyr 17; marked only by underlining, lost in the text). As to the kind of experiment: ELISA on coated peptide. Here is the method: as §2
For another experiment, the target named is pm2 (human, sulfated tyrosine(s) among Tyr 15, Tyr 16, Tyr 17; marked only by underlining, lost in the text). Description: ELISA on coated peptide. Here is the method:
as §2

The target of experiment [13] is T1, human CCR8. As to the kind of experiment: flow cytometry, human activated T cells. Here is the method:
(§3) Briefly, 1·10⁵ cells per well in a 96 well plate were incubated with a dilution of unconjugated anti-CCR8 mAb at 10 μg/mL then diluted at 1/3.33, 4 dilution points (during 30 min at 4° C.). […] To determine EC50 value, 8 concentrations of anti-CCR8 mAb were tested. Unbound antibodies were washed away with PBS (Invitrogen by Thermofisher Scientific, Illkirch-Graffenstaden, France) supplemented by 2% Fetal Bovine Serum (Invitrogen by Thermofisher Scientific, Illkirch-Graffenstaden, France) and 2 mM EDTA (Invitrogen by Thermofisher Scientific, Illkirch-Graffenstaden, France). Subsequently, cells are centrifuged (5 min at 400 g) and bound antibody is detected with F(ab′)₂-Goat anti-Mouse IgG (H+L) Cross-Adsorbed Secondary Antibody, Alexa Fluor 488 (dilution 1/500) (Invitrogen by Thermofisher Scientific, Illkirch-Graffenstaden, France) or with F(ab′)₂-Goat anti-Human IgG Fc Secondary Antibody, PE (Invitrogen by Thermofisher Scientific, Illkirch-Graffenstaden, France) (dilution 1/1000) at 4° C. for 30 min. Detection reagent is washed away and cells are centrifuged (5 min at 400 g) and resuspended in 30 μL PBS. Bound detection antibody is quantified on a MacsQuant16 (Miltenyi, Gladbach, Germany) (B1 or B2 channel, 5000 events per acquisition).
(§4) Binding characteristics of anti-CCR8 mAb cellular reactivity was further investigated by testing their binding to activated T cells.

The target of experiment [14] is T1, human CCR8. As to the kind of experiment: flow cytometry, HUT78 cells (native CCR8). Here is the method:
The same staining protocol was applied on human CCR8 transfected CHO cell line versus wild type CHO cell line, cutaneous T cell lymphoma HUT78 cell line and human activated T cell model.
as §3

Experiment [15] concerns the target T1, human CCR8. Description: flow cytometry, human activated T cells pre-incubated with 200 nM hCCL1. Here is the method:
as §3, §4

For experiment [16], the target named is T1, human CCR8. As to the kind of experiment: cell-based or functional assay. The source holds these as a separate data set.
The target of experiment [17] is T1, human CCR8. As to the kind of experiment: cell-based or functional assay. The source holds these as a separate data set.

Several values for one entry are separate records, joined by “and”; a condition that tells them apart may be missing. Identical values can stand only once.

T4 sequence (peptide, as listed by the source): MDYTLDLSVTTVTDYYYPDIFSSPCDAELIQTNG
T5 sequence (peptide, as listed by the source): as above
T3 sequence (peptide, as listed by the source): as above
T2 sequence (peptide, as listed by the source): as above
Chain of pm1 (human, sulfated tyrosine(s) among Tyr 15, Tyr 16, Tyr 17; marked only by underlining, lost in the text) (peptide, as listed by the source): as above
Chain of pm2 (human, sulfated tyrosine(s) among Tyr 15, Tyr 16, Tyr 17; marked only by underlining, lost in the text) (peptide, as listed by the source): as above
Chain of pm4 (human, sulfated tyrosine(s) among Tyr 15, Tyr 16, Tyr 17; marked only by underlining, lost in the text) (peptide, as listed by the source): as above

B1: 3-76 (antibody, human IgG1, kappa, V domains shown)
VH: EVQLVESGGGLVQPGRSLRLSCTASGFTFNTYAMNWVRQAPGKGLEWVARIRSKSNNYATYYAASVKGRFTISRDDSKSIAYLQMNSLKTEDTAVYYCVRGREAYYRYDGGYYAMDVWGQGTTVTVSS
VL: DIVMTQAAPSLPVTPGESASISCRSSKSLLHSNGNTYLYWFLQKPGQSPQLLIYRMSNLASGVPDRFSGSGSGTAFTLKISRVEAEDVGVYYCMQHLEYPFTFGSGTKLEIKR
notes: humanized, human IgG1 kappa
Regarding B1, in the experiment with human CCR8 [1], the “IC50 (Gi2 BRET, pH 6.5)” value is 0.024 µg/ml and 0.157 nM; the “IC50 (Gi2 BRET, pH 7.4)” value is 0.048 µg/ml and 0.318 nM. Further, in the experiment with human CCR8 [2], the “hCCL1 (100 nM) residual response, Protocol #2, mAb 0.08 µg/mL” value was found to be 88%; the “hCCL1 (100 nM) residual response, Protocol #2, mAb 0.4 µg/mL” value was 82%; the “hCCL1 (100 nM) residual response, Protocol #2, mAb 10 µg/mL” value turned out to be 64%; the “hCCL1 (100 nM) residual response, Protocol #3, mAb 0.05 µg/mL” value was 88%. In the experiment with human CCR8 [2], the “hCCL1 (100 nM) residual response, Protocol #3, mAb 0.5 µg/mL” value came out at 71% and the “hCCL1 (100 nM) residual response, Protocol #3, mAb 5 µg/mL” value worked out at 70%. Also, the binding result with pm5 [3] was “binds”. In the experiment with pm6 [4], the binding result was “binds”. In the experiment with pm8 [5], the binding result is given as “binds”. Also, the binding result in the experiment with pm3 [6] is “binds”. Besides, the “IC50 (read off the curve)” value with human CCR8 [7] was about 0.02 µg/mL.

B2: 3-1 (antibody, V domains shown)
VH: EVQLVETGGGLVQPKGSLKVSCAASGFTFNTNAMNWVRQAPGKGLEWVARIRSKSNNYATYYADSVKDRFIISRDDSQSMLYLQMNNLKTEDTAMYYCVRGGYYGTSVYFDVWGAGTTVTVSS
VL: DIVMTQAAPSVPVTPGESVSISCRSSKSLLHSNGNTYLYWFLQRPGQSPQLLIYRMSNLASGVPDRFSGSGSGTAFTLRISRVEAEDVGVYYCMQHLEYPFTFGGGTKLEIK
On to B2, for which, in the experiment with human CCR8 [1], the “IC50 (Gi2 BRET, pH 6.5)” value was > 4.5 µg/ml and > 30 nM. In the experiment with human CCR8 [1], the “IC50 (Gi2 BRET, pH 7.4)” value is > 4.5 µg/ml and > 30 nM. Besides, the binding result with pm5 [8], in the experiment with pm6 [9], with pm8 [10] and with pm3 [11] was “binds” throughout. In addition, in the experiment with human CCR8 [12], the “% positive cells” value was 38.8%. Besides, the “MFI fold change to isotype ctrl” value with human CCR8 [12] turned out to be 2.61 fold.

B3: 3-77 (antibody, human IgG1, kappa)
heavy: not shown
light: DIVMTQAAPSLSVTPGESASISCTSSKSLLHSNGNTYLYWFLQKPGQSPQLLIYRMSNLASGVPDRFSGSGSGTAFTLKISRVEAEDVGVYYCMQHREYPFTFGSGTKLEIKRTVAAPSVFIFPPSDEQLKSGTASVVCLLNNFYPREAKVQWKVDNALQSGNSQESVTEQDSKDSTYSLSSTLTLSKADYEKHKVYACEVTHQGLSSPVTKSFNRGEC
notes: humanized, human IgG1 kappa
Take B3: the “IC50 (Gi2 BRET, pH 6.5)” value with human CCR8 [1] was 0.018 µg/ml and 0.117 nM. Besides, the “IC50 (Gi2 BRET, pH 7.4)” value with human CCR8 [1] is 0.029 µg/ml and 0.194 nM. In addition, in the experiment with human CCR8 [2], the “hCCL1 (100 nM) residual response, Protocol #2, mAb 0.08 µg/mL” value was found to be 62%. For the same molecule, in the experiment with human CCR8 [2], the “hCCL1 (100 nM) residual response, Protocol #2, mAb 0.4 µg/mL” value was 38%. In addition, the “hCCL1 (100 nM) residual response, Protocol #2, mAb 10 µg/mL” value with human CCR8 [2] amounted to 30%. Moreover, the “hCCL1 (100 nM) residual response, Protocol #3, mAb 0.05 µg/mL” value with human CCR8 [2] was found to be 94%. Further, the “hCCL1 (100 nM) residual response, Protocol #3, mAb 0.5 µg/mL” value with human CCR8 [2] stood at 63%. In addition, the “hCCL1 (100 nM) residual response, Protocol #3, mAb 5 µg/mL” value with human CCR8 [2] stood at 39%. In addition, the binding result in the experiment with pm4, with pm1, with pm2, with pm5 [3], with pm6 [4] and with pm8 [5] was “binds” each time. Also, in the experiment with pm3 [6], the binding result is given as “binds”. Moreover, the figures for the “% of labelled cells” value with human CCR8 [13], with human CCR8 [14] and in the experiment with human CCR8 [15] were 79%, 23% and 64%, respectively. Besides, in the experiment with human CCR8 [7], the “IC50 (read off the curve)” value was about 0.1 µg/mL.

B4: 3-78 (antibody, human IgG1, kappa)
heavy: not shown
light: DIVMTQAAPSLSVTPGESASISCTSSKSLLHSNGNTYLYWFLQKPGQSPQLLIYRMSNLASGVPDRFSGSGSGTAFTLKISRVEAEDVGVYYCMQHREYPFTFGSGTKLEIKRTVAAPSVFIFPPSDEQLKSGTASVVCLLNNFYPREAKVQWKVDNALQSGNSQESVTEQDSKDSTYSLSSTLTLSKADYEKHKVYACEVTHQGLSSPVTKSFNRGEC
notes: humanized
As to B4, in the experiment with human CCR8 [1], the “IC50 (Gi2 BRET, pH 6.5)” value is 0.025 µg/ml and 0.165 nM; the “IC50 (Gi2 BRET, pH 7.4)” value was 0.035 µg/ml and 0.232 nM. In the experiment with human CCR8 [2], the “hCCL1 (100 nM) residual response, Protocol #2, mAb 0.08 µg/mL” value is 74%; the “hCCL1 (100 nM) residual response, Protocol #2, mAb 0.4 µg/mL” value came to 54%; the “hCCL1 (100 nM) residual response, Protocol #2, mAb 10 µg/mL” value amounted to 40%; the “hCCL1 (100 nM) residual response, Protocol #3, mAb 0.05 µg/mL” value came out at 89%. Moreover, in the experiment with human CCR8 [2], the “hCCL1 (100 nM) residual response, Protocol #3, mAb 0.5 µg/mL” value came to 63% and the “hCCL1 (100 nM) residual response, Protocol #3, mAb 5 µg/mL” value is 51%. Also, in the experiment with human CCR8 [16], the “ADCC % Max lysis, NK cells Donor 1” value was 30%; the “ADCC % Max lysis, NK cells Donor 2” value turned out to be 28%; the “ADCC EC50, NK cells Donor 1” value worked out at 6.43 pM; the “ADCC EC50, NK cells Donor 2” value came out at 0.42 pM. Also, the “ADCP % Max of phagocytosis, monocyte-derived macrophages Donor 9” value in the experiment with human CCR8 [17] was found to be 9.65%. For the same molecule, in the experiment with pm4, the binding result is “binds”. Further, in the experiment with pm1, the binding result is on record as “binds”. Moreover, in the experiment with pm2, the binding result is on record as “binds”. For the same molecule, the binding result in the experiment with pm5 [3] was “binds”. The binding result with pm6 [4] is on record as “binds”. Moreover, the binding result with pm8 [5] is recorded as “binds”. In addition, in the experiment with pm3 [6], the binding result is recorded as “binds”. For the same molecule, the “% of labelled cells” value with human CCR8 [14] stood at 32%. The “IC50 (read off the curve)” value with human CCR8 [7] is about 0.1 µg/mL.

B5: 3-2 (antibody, V domains shown)
VH: EVQLVESGGGLVKPGGSLKLSCAASGFTFSSYAMSWVRQTPEKRLEWVATINSGGSYTFYPDSVKGRFTISRDNAKNTLYLQMSSLRSVDTAIYYCARVSGYDERFAYWGQGTLVTVSA
VL: DVLMTQTPLSLPVSLGAQASISCRSSQSIVHSNGNTYLEWYLQKPGQSPKLLIYKVSNRFSGVPDRFSGSGSGTDFTLKLSRVEAEDLGVYYCFQGSHVPPTFGGGTKLEIK
For the molecule B5, the binding result with pm5 [8], with pm6 [9], with pm8 [10] and in the experiment with pm3 [11] was “binds” throughout. The “% positive cells” value with human CCR8 [12] worked out at 51.2%. Besides, the “MFI fold change to isotype ctrl” value with human CCR8 [12] turned out to be 3.41 fold.

The values above are taken from US20260234276A1 (DOMAIN THERAPEUTICS, published 2026).
